Laboratory results from patent US20230250154A1 (CYTONICS, published 2023).

T1: ADAMTS4 (human, UniProt O75173 213-685, limits assumed)
T1 sequence (looked up): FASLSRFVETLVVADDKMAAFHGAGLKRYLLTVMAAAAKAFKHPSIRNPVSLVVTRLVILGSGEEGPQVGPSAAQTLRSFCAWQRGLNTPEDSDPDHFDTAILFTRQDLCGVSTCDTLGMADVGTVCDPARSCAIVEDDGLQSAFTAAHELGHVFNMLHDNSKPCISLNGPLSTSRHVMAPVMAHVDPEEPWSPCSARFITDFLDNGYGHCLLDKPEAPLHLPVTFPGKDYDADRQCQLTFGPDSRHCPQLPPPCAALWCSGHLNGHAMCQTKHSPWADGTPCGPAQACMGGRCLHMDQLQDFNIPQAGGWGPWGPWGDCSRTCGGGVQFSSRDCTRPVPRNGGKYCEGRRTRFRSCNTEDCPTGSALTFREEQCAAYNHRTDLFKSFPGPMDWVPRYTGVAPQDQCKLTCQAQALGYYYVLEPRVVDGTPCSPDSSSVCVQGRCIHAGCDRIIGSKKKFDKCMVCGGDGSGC

T2: ADAMTS5 (human, UniProt Q9UNA0 262-622, limits assumed)
T2 sequence (looked up): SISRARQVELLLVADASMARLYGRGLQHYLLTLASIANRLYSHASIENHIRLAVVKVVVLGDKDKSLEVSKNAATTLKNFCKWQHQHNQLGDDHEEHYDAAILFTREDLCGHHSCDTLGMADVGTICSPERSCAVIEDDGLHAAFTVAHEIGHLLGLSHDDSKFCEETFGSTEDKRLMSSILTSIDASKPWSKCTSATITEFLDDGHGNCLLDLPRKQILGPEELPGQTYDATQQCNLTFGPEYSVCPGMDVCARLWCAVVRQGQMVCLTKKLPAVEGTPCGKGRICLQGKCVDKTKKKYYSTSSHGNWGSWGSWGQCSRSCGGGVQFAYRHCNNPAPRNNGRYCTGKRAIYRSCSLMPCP

B1: Variant A2M, bait region SEQ ID NO 104 (other)
chain: SVSGKPQYMVLVPSLLHTETTEKGCVLLSYLNETVTVSASLESVRGNRSLFTDLEAENDVLHCVAFAVPKSSSNEEVMFLTVQVKGPTQEFKKRTTVMVKNEDSLVFVQTDKSIYKPGQTVKFRVVSMDENFHPLNELIPLVYIQDPKGNRIAQWQSFQLEGGLKQFSFPLSSEPFQGSYKVVVQKKSGGRTEHPFTVEEFVLPKFEVQVTVPKIITILEEEMNVSVCGLYTYGKPVPGHVTVSICRKYSDASDCHGEDSQAFCEKFSGQLNSHGCFYQQVKTKVFQLKRKEYEMKLHTEAQIQEEGTVVELTGRQSSEITRTITKLSFVKVDSHFRQGIPFFGQVRLVDGKGVPIPNKVIFIRGNEANYYSNATTDEHGLVQFSINTTNVMGTSLTVRVNYKDRSPCYGYQWVSEEHEEAHHTAYLVFSPSKSFVHLEPMSHELPCGHTQTVQAHYILNGGTLLGLKKLSFYYLIMAKGGIVRTGTHGLLVKQEDMKGHFSISIPVKSDIAPVARLLIYAVLPTGDVIGDSAKYDVENCLANKVDLSFSPSQSLPASHAHLRVTAAPQSVCALRAVDQSVLLMKPDAELSASSVYNLLPEKDLTGFPGPLNDQDDEDCINRHNVYINGITYTPVSSTNEKDMYSFLEDMGLKAFTNSKIRKPKMCPQLEQYEMHGPEGLRVGESESEGGGGGSLLGEFEVEGGFAGLPNGKLRKYFPETWIWDLVVVNSAGVAEVGVTVPDTITEWKAGAFCLSEDAGLGISSTASLRAFQPFFVELTMPYSVIRGEAFTLKATVLNYLPKCIRVSVQLEASPAFLAVPVEKEQAPHCICANGRQTVSWAVTPKSLGNVNFTVSAEALESQELCGTEVPSVPEHGRKDTVIKPLLVEPEGLEKETTFNSLLCPSGGEVSEELSLKLPPNVVEESARASVSVLGDILGSAMQNTQNLLQMPYGCGEQNMVLFAPNIYVLDYLNETQQLTPEIKSKAIGYLNTGYQRQLNYKHYDGSYSTFGERYGRNQGNTWLTAFVLKTFAQARAYIFIDEAHITQALIWLSQRQKDNGCFRSSGSLLNNAIKGGVEDEVTLSAYITIALLEIPLTVTHPVVRNALFCLESAWKTAQEGDHGSHVYTKALLAYAFALAGNQDKRKEVLKSLNEEAVKKDNSVHWERPQKPKAPVGHFYEPQAPSAEVEMTSYVLLAYLTAQPAPTSEDLTSATNIVKWITKQQNAQGGFSSTQDTVVALHALSKYGAATFTRTGKAAQVTIQSSGTFSSKFQVDNNNRLLLQQVSLPELPGEYSMKVTGEGCVYLQTSLKYNILPEKEEFPFALGVQTLPQTCDEPKAHTSFQISLSVSYTGSRSASNMAIVDVKMVSGFIPLKPTVKMLERSNHVSRTEVSSNHVLIYLDKVSNQTLSLFFTVLQDVPVRDLKPAIVKVYDYYETDEFAIAEYNAPCSKDLGNADYKDDDDKGASHHHHHH
B2: Variant A2M, bait region SEQ ID NO 103 (other)
chain: SVSGKPQYMVLVPSLLHTETTEKGCVLLSYLNETVTVSASLESVRGNRSLFTDLEAENDVLHCVAFAVPKSSSNEEVMFLTVQVKGPTQEFKKRTTVMVKNEDSLVFVQTDKSIYKPGQTVKFRVVSMDENFHPLNELIPLVYIQDPKGNRIAQWQSFQLEGGLKQFSFPLSSEPFQGSYKVVVQKKSGGRTEHPFTVEEFVLPKFEVQVTVPKIITILEEEMNVSVCGLYTYGKPVPGHVTVSICRKYSDASDCHGEDSQAFCEKFSGQLNSHGCFYQQVKTKVFQLKRKEYEMKLHTEAQIQEEGTVVELTGRQSSEITRTITKLSFVKVDSHFRQGIPFFGQVRLVDGKGVPIPNKVIFIRGNEANYYSNATTDEHGLVQFSINTTNVMGTSLTVRVNYKDRSPCYGYQWVSEEHEEAHHTAYLVFSPSKSFVHLEPMSHELPCGHTQTVQAHYILNGGTLLGLKKLSFYYLIMAKGGIVRTGTHGLLVKQEDMKGHFSISIPVKSDIAPVARLLIYAVLPTGDVIGDSAKYDVENCLANKVDLSFSPSQSLPASHAHLRVTAAPQSVCALRAVDQSVLLMKPDAELSASSVYNLLPEKDLTGFPGPLNDQDDEDCINRHNVYINGITYTPVSSTNEKDMYSFLEDMGLKAFTNSKIRKPKMCPQLEQYEMHGPEGLRVGGARGLEGGFAGLPNGGEEGVEEGKLRKYFPETWIWDLVVVNSAGVAEVGVTVPDTITEWKAGAFCLSEDAGLGISSTASLRAFQPFFVELTMPYSVIRGEAFTLKATVLNYLPKCIRVSVQLEASPAFLAVPVEKEQAPHCICANGRQTVSWAVTPKSLGNVNFTVSAEALESQELCGTEVPSVPEHGRKDTVIKPLLVEPEGLEKETTFNSLLCPSGGEVSEELSLKLPPNVVEESARASVSVLGDILGSAMQNTQNLLQMPYGCGEQNMVLFAPNIYVLDYLNETQQLTPEIKSKAIGYLNTGYQRQLNYKHYDGSYSTFGERYGRNQGNTWLTAFVLKTFAQARAYIFIDEAHITQALIWLSQRQKDNGCFRSSGSLLNNAIKGGVEDEVTLSAYITIALLEIPLTVTHPVVRNALFCLESAWKTAQEGDHGSHVYTKALLAYAFALAGNQDKRKEVLKSLNEEAVKKDNSVHWERPQKPKAPVGHFYEPQAPSAEVEMTSYVLLAYLTAQPAPTSEDLTSATNIVKWITKQQNAQGGFSSTQDTVVALHALSKYGAATFTRTGKAAQVTIQSSGTFSSKFQVDNNNRLLLQQVSLPELPGEYSMKVTGEGCVYLQTSLKYNILPEKEEFPFALGVQTLPQTCDEPKAHTSFQISLSVSYTGSRSASNMAIVDVKMVSGFIPLKPTVKMLERSNHVSRTEVSSNHVLIYLDKVSNQTLSLFFTVLQDVPVRDLKPAIVKVYDYYETDEFAIAEYNAPCSKDLGNADYKDDDDKGASHHHHHH
B3: Variant A2M, bait region SEQ ID NO 105 (other)
chain: SVSGKPQYMVLVPSLLHTETTEKGCVLLSYLNETVTVSASLESVRGNRSLFTDLEAENDVLHCVAFAVPKSSSNEEVMFLTVQVKGPTQEFKKRTTVMVKNEDSLVFVQTDKSIYKPGQTVKFRVVSMDENFHPLNELIPLVYIQDPKGNRIAQWQSFQLEGGLKQFSFPLSSEPFQGSYKVVVQKKSGGRTEHPFTVEEFVLPKFEVQVTVPKIITILEEEMNVSVCGLYTYGKPVPGHVTVSICRKYSDASDCHGEDSQAFCEKFSGQLNSHGCFYQQVKTKVFQLKRKEYEMKLHTEAQIQEEGTVVELTGRQSSEITRTITKLSFVKVDSHFRQGIPFFGQVRLVDGKGVPIPNKVIFIRGNEANYYSNATTDEHGLVQFSINTTNVMGTSLTVRVNYKDRSPCYGYQWVSEEHEEAHHTAYLVFSPSKSFVHLEPMSHELPCGHTQTVQAHYILNGGTLLGLKKLSFYYLIMAKGGIVRTGTHGLLVKQEDMKGHFSISIPVKSDIAPVARLLIYAVLPTGDVIGDSAKYDVENCLANKVDLSFSPSQSLPASHAHLRVTAAPQSVCALRAVDQSVLLMKPDAELSASSVYNLLPEKDLTGFPGPLNDQDDEDCINRHNVYINGITYTPVSSTNEKDMYSFLEDMGLKAFTNSKIRKPKMCPQLEQYEMHGPEGLRVGGFKEGVEGEIEEGGGFKEGVEGKLRKYFPETWIWDLVVVNSAGVAEVGVTVPDTITEWKAGAFCLSEDAGLGISSTASLRAFQPFFVELTMPYSVIRGEAFTLKATVLNYLPKCIRVSVQLEASPAFLAVPVEKEQAPHCICANGRQTVSWAVTPKSLGNVNFTVSAEALESQELCGTEVPSVPEHGRKDTVIKPLLVEPEGLEKETTFNSLLCPSGGEVSEELSLKLPPNVVEESARASVSVLGDILGSAMQNTQNLLQMPYGCGEQNMVLFAPNIYVLDYLNETQQLTPEIKSKAIGYLNTGYQRQLNYKHYDGSYSTFGERYGRNQGNTWLTAFVLKTFAQARAYIFIDEAHITQALIWLSQRQKDNGCFRSSGSLLNNAIKGGVEDEVTLSAYITIALLEIPLTVTHPVVRNALFCLESAWKTAQEGDHGSHVYTKALLAYAFALAGNQDKRKEVLKSLNEEAVKKDNSVHWERPQKPKAPVGHFYEPQAPSAEVEMTSYVLLAYLTAQPAPTSEDLTSATNIVKWITKQQNAQGGFSSTQDTVVALHALSKYGAATFTRTGKAAQVTIQSSGTFSSKFQVDNNNRLLLQQVSLPELPGEYSMKVTGEGCVYLQTSLKYNILPEKEEFPFALGVQTLPQTCDEPKAHTSFQISLSVSYTGSRSASNMAIVDVKMVSGFIPLKPTVKMLERSNHVSRTEVSSNHVLIYLDKVSNQTLSLFFTVLQDVPVRDLKPAIVKVYDYYETDEFAIAEYNAPCSKDLGNADYKDDDDKGASHHHHHH

These binders were tested against T1, ADAMTS4 (assay: cell-based or functional assay).

Binder	Protease Inhibition (% of WT)
B1	100 % of WT
B2	168 % of WT
B3	94 % of WT

What follows are binders tested against T2, ADAMTS5 (assay: cell-based or functional assay).

Binder	Protease Inhibition (% of WT)
B1	99 % of WT
B2	309 % of WT
B3	115 % of WT

What follows are binders tested against MMP13 (human, UniProt P45452 104-471, limits assumed) (assay: cell-based or functional assay).

Binder	Protease Inhibition (% of WT)
B1	80 % of WT
B2	52 % of WT
B3	164 % of WT
